From article PMC7727368

Target: Fasciola hepatica profilin (FhProfilin), recombinant (Fasciola hepatica)
Assay: SEC; Superdex S75 16/60 in TBS (10 mM Tris-HCl, 300 mM NaCl, pH 8.0), 1 ml/min; elution volume compared with proteins of known molecular weight

Which stoichiometry N does the source give for “Fasciola hepatica profilin (FhProfilin), recombinant (natural protein)” here?
The stoichiometry N was 2.
